B1: HDV Ribozyme (parent)
chain: GGCCGGCAUGGUCCCAGCCUCCUCGCUGGCGCCGGCUGGGCAACAUUCCGAGGGGACCGUCCCCUCGGUAAUGGCGAAUGGGACCCA

The data set covers variants of B1. The data set can be described thus: self-cleavage, relative activity (ratio to wild type); higher = more cleavage; co-transcriptional.
GGCCGGCAUGGUCCCAGCCUCCUCGAUGGCGCCGGCUGGGCAACAUUCCGAGGGGACCCUCCCCUCGGUAAUGGCGAAUGGGACCCA [C26A G59C]: the self-cleavage was 0.944.

As for GGCCGGCAUGGUCCCAGCCUCCUCGAUGGCGCCGGCUGGGCAACAUUCCGAGGGGACCUUCCCCUCGGUAAUGGCGAAUGGGACCCA [C26A G59U], the self-cleavage turned out to be 1.12.

As to GGCCGGCAUGGUCCCAGCCUCCUCGAUGGCGCCGGCUGGGCAACAUUCCGAGGGGACCGUCCCCUCGGUAAUGGCGAAUGGGACCGA [C26A C86G], the self-cleavage stood at 0.888.

GGCCGGCAUGGUCCCAGCCUCCUCGAUGGCGCCGGCUGGGCAACAUUCCGAGGGGACCGUCCCCUCGGUAAUGGCGAAUGGGACCUA [C26A C86U]: the self-cleavage amounted to 0.735.

Turning to GGCCGGCAUGGUCCCAGCCUCCUCGAUGGCGCCGGCUGGGCAACAUUCCGAGGGGACCGUCCCCUCGGUAAUGGCGAAUGGGACCAA [C26A C86A], the self-cleavage worked out at 1.13.

For the variant GGCCGGCAUGGUCCCAGCCUCCUCGAUGGCGCCGGCUGGGCAACAUUCCGAGGGGACCGUCCCCUCGGUAAUGGCGAAUGGCACCCA [C26A G82C], the self-cleavage is 0.342.

With GGCCGGCAUGGUCCCAGCCUCCUCGAUGGCGCCGGCUGGGCAACAUUCCGAGGGGACCGUCCCCUCGGUAAUGGCGAAUGGUACCCA [C26A G82U], the self-cleavage was 0.317.

GGCCGGCAUGGUCCCAGCCUCCUCGGUGGCGCCGGCUGGGCACCAUUCCGAGGGGACCGUCCCCUCGGUAAUGGCGAAUGGGACCCA [C26G A43C]: the self-cleavage stood at 0.437.

With GGCCGGCAUGGUCCCAGCCUCCUCGGUGGCGCCGGCUGGGCAUCAUUCCGAGGGGACCGUCCCCUCGGUAAUGGCGAAUGGGACCCA [C26G A43U], the self-cleavage is 0.584.

Consider GGCCGGCAUGGUCCCAGCCUCCUCGAUGGCGCCGGCUGGGCAACAUUCCGAGGGGACCGUCCCCACGGUAAUGGCGAAUGGGACCCA [C26A U65A], for which the self-cleavage was 0.966.

Turning to GGCCGGCAUGGUCCCAGCCUCCUCGAUGGCGCCGGCUGGGCAACAUUCCGAUGGGACCGUCCCCUCGGUAAUGGCGAAUGGGACCCA [C26A G52U], the self-cleavage was 0.798.

GGCCGGCAUGGUCCCAGCCUCCUCGAUGGCGCCGGCUGGGCAACAUUCCGAAGGGACCGUCCCCUCGGUAAUGGCGAAUGGGACCCA [C26A G52A]: the self-cleavage was 1.06.

As for GGCCGGCAUGGUCCCAGCCUCCUCGAUGGCGCCGGCCGGGCAACAUUCCGAGGGGACCGUCCCCUCGGUAAUGGCGAAUGGGACCCA [C26A U37C], the self-cleavage was determined as 1.13.

GGCCGGCAUGGUCCCAGCCUCCUCGAUGGCGCCGGCUGGGCAACAUUCCGAGGGGACCGUCCCCUCGGUAAUGACGAAUGGGACCCA [C26A G74A]: the self-cleavage was determined as 0.573.

GGCCGGCAUGGUCCCAGCCUCCUCGAUGGCGCCGGCUGGCCAACAUUCCGAGGGGACCGUCCCCUCGGUAAUGGCGAAUGGGACCCA [C26A G40C]: the self-cleavage amounted to 0.601.

In the case of GGCCGGCAUGGUCCCAGCCUCCUCGAUGGCGCCGGCUGGGCAACAUUCCGAGGGGACCGUCCCCUCGGUAAUGGCGAAUGGGAACCA [C26A C84A], the self-cleavage stood at 0.787.

Take GGCCGGCAUGGUCCCAGCCUCCUCGAUGGCGCCGGCUGGGCAACAUUCCGAGGGGACCGUCCCCUCGGUAAUGGCGAAUGGGAGCCA [C26A C84G]: the self-cleavage was 0.95.

With GGCCGGCAUGGUCCCAGCCUCCUCGAUGGCGCCGGCUGGGCAACAUUCCGAGGGGACCGUCCCCUCGGUAAUGGCGAAUGGGAUCCA [C26A C84U], the self-cleavage was found to be 0.854.

As for GGCCGGCAUGGUCCCAGCCUCCUCGAUGGCGCCGGCUGGGCAACAAUCCGAGGGGACCGUCCCCUCGGUAAUGGCGAAUGGGACCCA [C26A U46A], the self-cleavage came to 0.77.

Regarding GGCCGGCAUGGUCCCAGCCUCCUCGAUGGCGCCGGCUGGGCAACAGUCCGAGGGGACCGUCCCCUCGGUAAUGGCGAAUGGGACCCA [C26A U46G], the self-cleavage turned out to be 0.86.

For GGCCGGCAUGGUCCCAGCCUCCUCGAUGGCGCCGGCUGGGCAACAUUCCGAGGGGACCGUCCCAUCGGUAAUGGCGAAUGGGACCCA [C26A C64A], the self-cleavage was found to be 1.02.

Take GGCCGGCAUGGUCCCAGCCUCCUCGAUGGCGCCGGCUGGGCAACAUUCCGAGGGGACCGUCCCUUCGGUAAUGGCGAAUGGGACCCA [C26A C64U]: the self-cleavage was 1.13.

GGCCGGCAUGGUCCCAGCCUCCUCGAUGGCGCCGACUGGGCAACAUUCCGAGGGGACCGUCCCCUCGGUAAUGGCGAAUGGGACCCA [C26A G35A]: the self-cleavage is 0.633.

For GGCCGGCAUGGUCCCAGCCUCCUCGAUGGCGCCCGCUGGGCAACAUUCCGAGGGGACCGUCCCCUCGGUAAUGGCGAAUGGGACCCA [C26A G34C], the self-cleavage was determined as 0.111.

Consider GGCCGGCAUGGUCCCAGCCUCCUCGAUGGCGCCUGCUGGGCAACAUUCCGAGGGGACCGUCCCCUCGGUAAUGGCGAAUGGGACCCA [C26A G34U], for which the self-cleavage was 0.683.

On to GGCCGGCAUGGUCCCAGCCUCCUCGAUGGCGCCGGCUGGGCAACAUCCCGAGGGGACCGUCCCCUCGGUAAUGGCGAAUGGGACCCA [C26A U47C], for which the self-cleavage came to 0.646.

Take GGCCGGCAUGGUCCCAGCCUCCUCGAUGGCGCCGGCUGGGCAACAUUCCGAGGGGACCGUCCCCUCGGGAAUGGCGAAUGGGACCCA [C26A U69G]: the self-cleavage came to 1.15.

On to GGCCGGCAUGGUCCCAGCCUCCUCGAUGGCGCCGGCUGGGCAACAUUCCGAGGGGACCGUCCCCUCGGCAAUGGCGAAUGGGACCCA [C26A U69C], for which the self-cleavage was determined as 0.988.

With GGCCGGCAUGGUCCCAGCCUCCUCGAUGGCGCCGGCUGGGCAACAUUCCGAGGGGACCGGCCCCUCGGUAAUGGCGAAUGGGACCCA [C26A U60G], the self-cleavage worked out at 1.2.

In the case of GGCCGGCAUGGUCCCAGCCUCCUCGAUGGCGCCGGCUGGGCAACAUUCCGAGGGGACCGCCCCCUCGGUAAUGGCGAAUGGGACCCA [C26A U60C], the self-cleavage is 0.81.

Consider GGCCGGCAUGGUCCCAGCCUCCUCGAUGCCGCCGGCUGGGCAACAUUCCGAGGGGACCGUCCCCUCGGUAAUGGCGAAUGGGACCCA [C26A G29C], for which the self-cleavage came out at 0.104.

Turning to GGCCGGCAUGGUCCCAGCCUCCUCGAUGGCGCCGGCUGGGCAACAUUCCGAGGGGACUGUCCCCUCGGUAAUGGCGAAUGGGACCCA [C26A C58U], the self-cleavage turned out to be 0.981.

The values are drawn from the RNAGym collection of RNA variant scans (doi:10.7554/elife.80360).
